Article PMC4812251

Substrate: CC(=O)O
Assay: purified protein
Conditions: ATP 10 mM, CoA 0.1 mM, MgCl2 5 mM, acetate salt 2.5-80 mM

B1: DtACS (Dunaliella tertiolecta) (protein)
chain: MKCSALPAGSRPQALATHTSMQAPLLLRSLAPSVPKLAQPAGTPLVHSSLPCYRKSRSCSHLASASSTAPGSTTMKPQPLLTNFIQSKEEYDALYARSIADPASFWGDVAEQFHWEKKWDPDHHSFNFDVTKGPINVEWFKGGFTNICYNALDRHVMTGHGNQHCMLFEGNEPGSDGAMTYTQVLDEVCRLANWMKAQGIGKGDCVAIYMPMVMQLPIAMLACARIGAVHSVVFGGFSADALAGRMEDCKARVLLTCNGGMRATKKIELKQIADQAIEMCASRGHTVDSVLVFANHKDGVAGAEAAGTPFTQGRDAWWQPTLAEFPALCDVAWVPAEHPLFLLYTSGSTGKPKGVLHTTGGYMVYAATTTKHAFQLQPGDVFWCTADCGWITGHSYLAYGPLLNRAVSVVFEGVPTHPTPARSWEIIDKYQVKQFYTAPTALRSLMRSGDEWLSSTSRQSLQVLGTVGEPINPEAWHWFHDLVGNGRCPVVDTWWQTETGGHMILPLPRAWPAKPGSATLPFFGVEPVILDDKGVELQGECEGLLMMRRPWPSTLRSVYGDHKRYEENYFGPYPGYYFTGDGARRDKDGYYWITGRVDDVINVSGHRIGTAEVESAIAAHHDCAEAAVAGYEHPVKGQGIYAFVVLKEGVVPNDQLKKEMWTNVRTTIGAFAAPDVIHWAPGLPKTRSGKIMRRVLRKIAGGQENELGDTSTLADPSIVRQLIETRN
Tris-Cl pH 8.0, 37 °C (general assay)
  Km: 3.59 mM
Tris-Cl pH 8.0, 37 °C (general assay; mix lists 10 mM potassium acetate as substrate)
  Km: 4.66 mM
